Assay results taken from the RNAGym collection of RNA variant scans (doi:10.7554/elife.80360).

B1: HDV Ribozyme (parent)
chain: GGCCGGCAUGGUCCCAGCCUCCUCGCUGGCGCCGGCUGGGCAACAUUCCGAGGGGACCGUCCCCUCGGUAAUGGCGAAUGGGACCCA

Variants of: B1
Test: self-cleavage, relative activity (ratio to wild type); higher = more cleavage; co-transcriptional

Row | Variant | self-cleavage
1 | GGCCGGCAUGGUCCCAGCCUCCUCGCUGGCGCCGGCUGGGCAACAUUCCGAGGGGACCGUCCGCUUGGUAAUGGCGAAUGGGACCCA [C63G C66U] | 0.386
2 | GGCCGGCAUGGUCCCAGCCUCCUCGCUGGCGCCGGCUGGGCAACAUUCCGAGCGGACCGUCCCCUCGGUAAUGGCGAAUGGGGCCCA [G53C A83G] | 0.815
3 | GGCCGGCAUGGUUCCAGCCUCCUCGCUGGCGCCGGCUGGGCAACAUUCCGAGGGGACCGUCCCCUCGGUAAUCGCGAAUGGGACCCA [C13U G73C] | 0.123
4 | GGCCGGCAUGGUCCCAUCCUCCUCGCUGGCGCCGGCUGGGCAACAUUCCGAGGGGACCGUCCCCUCGGCAAUGGCGAAUGGGACCCA [G17U U69C] | 0.869
5 | GGCCGACGUGGUCCCAGCCUCCUCGCUGGCGCCGGCUGGGCAACAUUCCGAGGGGACCGUCCCCUCGGUAAUGGCGAAUGGGACCCA [G6A A8G] | 0.554
6 | GGCCGGAAUGGUCCCAGCAUCCUCGCUGGCGCCGGCUGGGCAACAUUCCGAGGGGACCGUCCCCUCGGUAAUGGCGAAUGGGACCCA [C7A C19A] | 0.0277
7 | GGCCGGCAUGGUCCCAGCCUCCUCGCUGGCGCCGGCUGGGCAACAUUCCGAGGGGACCGUCCCCUCGGUAAUGGCGAAUCGGCCCCA [G80C A83C] | 0.128
8 | GGCCGGCAUGGUCUCAGCCUCCUCGCUGGCGCCGGCUGGGCAACAUUCCGAGGGGACCGUCCCCUCGGUAAUGGCAAAUGGGACCCA [C14U G76A] | 1.49
9 | GGCCGGCAUGGUCCCAGCCUCCUCGCUGGCGCCUGCUGGGCAACAUUCCGAGGGGACCGUCCCCUUGGUAAUGGCGAAUGGGACCCA [G34U C66U] | 0.166
10 | GGCCGGCAUGGUCCCAGCCUCCUCGCUGGCGCCGGCCGGGCAACAUUCCGAGGGGACCGUCCCCUCGGUAAUGGCGAGUGGGACCCA [U37C A78G] | 0.475
11 | GGCCGGCUUGGUCCCAGCCUCCUCGCUGGCGCCGGCUGGGCAACAUUCCGAGGGGACCGUCCCCUCGGUAAUGGCGAAUUGGACCCA [A8U G80U] | 0.0715
12 | GGCCGGCAUGGUCCCAGCCUCCUCGCUGGCGCCGGCUGUGCAAAAUUCCGAGGGGACCGUCCCCUCGGUAAUGGCGAAUGGGACCCA [G39U C44A] | 0.0627
13 | GGCCGGCAUGGUCCCAGCCUCCUCGCUGGCGCCGGCUGGGCAACAUUCCGAGGGGUCCGUCCCCUCGGUAAUGGCGAAUAGGACCCA [A56U G80A] | 0.358
14 | GGCCGGCAUGGUCCCAGCCUCCUCACUGGCGCCGGCUGGGCAACAUUCCGAGGGGACCGUCCCCUCGGUAAUGGCGAAUGGGAACCA [G25A C84A] | 0.175
15 | GGCCGGCAUGGUCCCAGCCUCCUCGCUGGCGCCGGAUGGGCAACAUUCCGAGGGGACCGUCCCCUCGUUAAUGGCGAAUGGGACCCA [C36A G68U] | 0.157
16 | GGCCGGCAUGGUCCCAGCCUCCUCGCUGGCGCCGGCUGGGCCACAUUCCGAGGGGACCGUCCCCUCGAUAAUGGCGAAUGGGACCCA [A42C G68A] | 0.253
17 | GGCCGGCAUGGUCCCAGCCUCCUCGGUGGCGCCGGCUGGGCAACAGUCCGAGGGGACCGUCCCCUCGGUAAUGGCGAAUGGGACCCA [C26G U46G] | 0.554
18 | GGCCGGCAUGGUCCCAGCCUCCUCGCUGGCGCCGGCUGGGCAACAUUCCGAGGGGACCGUCCCCGCGGUAAUGGAGAAUGGGACCCA [U65G C75A] | 0.259
19 | GGCCGGCAUGGUCCCAGCCUCCUCGCUGGCGCCGGCUGGGCAACAUUCCGAGGGGACCGUCCGCUCGGUAGUGGCGAAUGGGACCCA [C63G A71G] | 0.656
20 | GGCCGGCAUGGUCCCAGCCUCCUCGCUGGCGCAGGCUGGGCAACAUUCCGAGGGGACCGUCCCCACGGUAAUGGCGAAUGGGACCCA [C33A U65A] | 0.332
21 | GGCCGGCAUGGUCCCAGCCUCCUCGCUGGCGCCGGCUGGGCAACAUUCCGAGGGGACCGUCCCCUCCGUAAUGGCGAAUGGGACCCU [G67C A87U] | 0.858
22 | GGCCGGCAUGGUACCAGCCUCCUCGCUGGCGCCGGCUGGGCAACAUUCCGAGGGGACAGUCCCCUCGGUAAUGGCGAAUGGGACCCA [C13A C58A] | 0.155

Row | Variant | self-cleavage
23 | GGCCGGCAUGGUCCCAGCCUCCUCGCGGGCGCCGGGUGGGCAACAUUCCGAGGGGACCGUCCCCUCGGUAAUGGCGAAUGGGACCCA [U27G C36G] | 0.0665
24 | GGCCGGGAUGGUCCCAGCCACCUCGCUGGCGCCGGCUGGGCAACAUUCCGAGGGGACCGUCCCCUCGGUAAUGGCGAAUGGGACCCA [C7G U20A] | 0
25 | GGCCGGCAUGGUCCCAGCCUCCUCGCUGGCGCCGGCUGGGCAACAUUCCGAGGUGACCGUCGCCUCGGUAAUGGCGAAUGGGACCCA [G54U C62G] | 1.08
26 | GGCCGGCAUGGUCCCAGCCUCCUCGCGGGCGCCGGCUGGGCAACAUUCCGCGGGGACCGUCCCCUCGGUAAUGGCGAAUGGGACCCA [U27G A51C] | 0.906
27 | GGCCGGCAUUGUCCCAGCCUCCUCGCUGGGGCCGGCUGGGCAACAUUCCGAGGGGACCGUCCCCUCGGUAAUGGCGAAUGGGACCCA [G10U C30G] | 0.0989
28 | GGCCGGCAUGGUCCCAGCCUUCUCGCUGGCGCCGGCUGGGCAACAUUCCGAGGGGACCGUCCCCUCGGUAAUGGCGAAUGUGACCCA [C21U G81U] | 0.0875
29 | GGCCGGUAUGGUCCCAGCCUCCUCCCUGGCGCCGGCUGGGCAACAUUCCGAGGGGACCGUCCCCUCGGUAAUGGCGAAUGGGACCCA [C7U G25C] | 0.0378
30 | GGCCGGCAUGGUCCCAGCCUCCUCGCUGGCGCCGGCUGGGCUACAUUCCGAGGGGAACGUCCCCUCGGUAAUGGCGAAUGGGACCCA [A42U C57A] | 0.575
31 | GGCCGGCAUGGUCCCAGCCUCCUAGCUGGCGCCGGCUGGGCAACAUUCCGAGGGGACCGUCCCCUCGGUAAUGGCGAAUGGAACCCA [C24A G82A] | 0.223
32 | GGCCGGCAUGGUCCCAGCCUCCUCGCUGGCGCCGGCUGGGCAACAUUCGGAGGGGACCGUCCCCUCGGUAAUAGCGAAUGGGACCCA [C49G G73A] | 0.197
33 | GGCCGGCAUGCUCCCAGCCUCCGCGCUGGCGCCGGCUGGGCAACAUUCCGAGGGGACCGUCCCCUCGGUAAUGGCGAAUGGGACCCA [G11C U23G] | 0.0652
34 | GGCCGGCAUGGUCCCAGCCUCCUCGCUGGCGCCGGCUGGGCAACAUUCCGAGGCGACCGUCCCCUCGAUAAUGGCGAAUGGGACCCA [G54C G68A] | 0.858
35 | GGCCGGCAUGGUCCCAGCCUCCUCGCUGGCGCCGGCUGGGCAACAUUCCGAGGGGACCGUCCCCUCGGUAAUGGCGUAUGGGGCCCA [A77U A83G] | 0.261
36 | GGCCGGCAUGGUCCCAGCCUCCGCGCUGGCGGCGGCUGGGCAACAUUCCGAGGGGACCGUCCCCUCGGUAAUGGCGAAUGGGACCCA [U23G C32G] | 0.237
37 | GGCCGGCAUGGUCCCAGCCUCCUCGCUGGCGCCGGCUGGGCAACAUUCCGAGGGGAUCGUCCCCUCGGUAAUGGCGGAUGGGACCCA [C57U A77G] | 0.941
38 | GGCCGGCAUGGUCCCUGCCUCCUCGAUGGCGCCGGCUGGGCAACAUUCCGAGGGGACCGUCCCCUCGGUAAUGGCGAAUGGGACCCA [A16U C26A] | 1.05
39 | GGCCGGCAUGGUCCCAGCCUCCUCGCUGGCGCCGGCUGGGCAACAUUCCGAGGGGACCGUUCCCUCGGUAAUGGCGAAUGGGACCAA [C61U C86A] | 0.812
40 | GGCCGGCAUGGUCCCAGCUUCCUCGCUGGCGCCGGCUGGGCAACAUUCCGAGGGGACCUUCCCCUCGGUAAUGGCGAAUGGGACCCA [C19U G59U] | 0.194
41 | GGCCGGCAUGGUCCCAGCCUUCUCGCUGGCGCCGGCUGGGCAACAUUCCGAGGGGACCGUCCCCGCGGUAAUGGCGAAUGGGACCCA [C21U U65G] | 0.0852
42 | GGCCGGCAUGGUCCCAUCCUCCUCGCUGGCGCCGGCUGAGCAACAUUCCGAGGGGACCGUCCCCUCGGUAAUGGCGAAUGGGACCCA [G17U G39A] | 0.128
43 | GGCCAGCAUGGUCCCAGCCUCCUCGCUGGCGCCGGCUGGGCAACAUUCCGAGGGGACCGUCCCCCCGGUAAUGGCGAAUGGGACCCA [G5A U65C] | 0.308
44 | GGCCGGCAUGGUCCCCGCCUCCUCGCUGGCGCCGGCUGGGCAACAUUCCGAGGGGACCGUCCCCUCGGUAAUGGCGAAAGGGACCCA [A16C U79A] | 1.06

Row | Variant | self-cleavage
45 | GGCCGGCAUGGUCCCAGCCUCCUCGCUGGCGCCGGCAGGGCAACAUUCCGAGGGGACCGUUCCCUCGGUAAUGGCGAAUGGGACCCA [U37A C61U] | 0.277
46 | GGCCGGCAUGGUCCCAGCCUCCUCGCCGGCGCCGGCUGGGCAACAUUCCGAAGGGACCGUCCCCUCGGUAAUGGCGAAUGGGACCCA [U27C G52A] | 0.884
47 | GGCCGGCAUGUUCCCAGCCUCCUCGCUGGCGCCCGCUGGGCAACAUUCCGAGGGGACCGUCCCCUCGGUAAUGGCGAAUGGGACCCA [G11U G34C] | 0.166
48 | GGCCGGCAUGCUCCCAGCCUCCUCGCUGGCGCCGGCUGGGCAACAUUCCGAGGGGACCGUCCCCUCGGGAAUGGCGAAUGGGACCCA [G11C U69G] | 0.516
49 | GGCCGGCAUGGUCCAAGCCUCCUCGCUGGCGCCGGCUGGCCAACAUUCCGAGGGGACCGUCCCCUCGGUAAUGGCGAAUGGGACCCA [C15A G40C] | 0.0875
50 | GGCCGGCAUGGUCCCAGCCUCCCCGCUGGCGCCGGCUGGGCAACAUUCCGAGGGGACCGUCCCCUCGGUAAUGGGGAAUGGGACCCA [U23C C75G] | 0.148
51 | GGCCGGCAUGGUCCCAGCCUCCUCGCUGGCGCCGGCUGGGCAACAUUCCGAGGGGACCGUCACCUCGGUAAUGGCGAAUUGGACCCA [C62A G80U] | 0.16
52 | GGCCGGCAUGGUCCCAGCCUCCUCGCUGGCGCCGGCUGGGCAACAUUCCGAGGGGACCGUCCGCUCGGUAAUGGCGAAUGGGCCCCA [C63G A83C] | 0.249
53 | GGCAGGCAUGGUCCCAGCCUCCUCGCUGGCGCCGGCUGGGCAACAUGCCGAGGGGACCGUCCCCUCGGUAAUGGCGAAUGGGACCCA [C4A U47G] | 0.201
54 | GGCCGGCAUGGACCCAGCCUCCUCGCUGGCGCCGGCUGGGCAACAUUCCGAGGGGACCGUCCCCUCGGUAACGGCGAAUGGGACCCA [U12A U72C] | 0.277
55 | GGCCGGCAUGGUCCCAGCCUCCUCGCUGGCGCCGGCUGGGCAGCAUUCCGAGGGCACCGUCCCCUCGGUAAUGGCGAAUGGGACCCA [A43G G55C] | 0.743
56 | GGCCGGCAUGGUCCCAGCCUCCUCGCUGGCGGCGGCUGGGCAACAUUCCGAGGGGACCGUCCCCUCGGUCAUGGCGAAUGGGACCCA [C32G A70C] | 0.38
57 | GGCCGGCAUGGUCCCAGCCUCCUCGCUGGCGCCGGCUGGGCAACUUUCCGAGGGGACCGUCCCCUCGGUAAUGGCGAAUGGGACUCA [A45U C85U] | 0.877
58 | GGCCGGCAUGGUCCCAGCCUCCUCGCUGGCGCCGGCUGGGCAUCAUUCCGAGGGGACCGUCUCCUCGGUAAUGGCGAAUGGGACCCA [A43U C62U] | 0.394
59 | GGCCGGCAUGGUCCCAGCCUCCUCGCUGGCGCCGGCUGGGCAACAUUCCGAGGGGACGGUCCCCUCGGUAAUGGCGAAUGGGACCCA [C58G] | 0.964
60 | GGCCGGCAUGGUCCCAGCCUCCUCGCUGGCGCCCGCUGGGCAACAUACCGAGGGGACCGUCCCCUCGGUAAUGGCGAAUGGGACCCA [G34C U47A] | 0.161
61 | GGCCGGCAUGGUCCCAGCCUCCUAGCUGGCGCCGGCUGGGCAACAUUCCGAGGGGACCGUCCCCUCGGUAAUGGGGAAUGGGACCCA [C24A C75G] | 0.0898
62 | GGCCGGCAUGGUCCCAGCCUCAUCGCUGGCGCCGGCUGGGCAACAUUCCGAGGAGACCGUCCCCUCGGUAAUGGCGAAUGGGACCCA [C22A G54A] | 0.197
63 | GGCCGGCAUGGUCCCAGCCUCCUGGCUGGCGCCGGCUGGGCAACAUUCCGAGGGGCCCGUCCCCUCGGUAAUGGCGAAUGGGACCCA [C24G A56C] | 0.0723
64 | GGCCGGCAUGGUCCCAGCCUCCUCGCUGGCGCCGGCUGGGCAACAUUCCGAGGAGACCGUCCCCUCGGUAAUGGCGAACGGGACCCA [G54A U79C] | 0.411
